Earlier results as cited in patent publication US20060222641A1, “Method and composition for preventing or reducing edema, deep vein thrombosis and/or pulmonary embolism” (priority 2003, published 2006).

System: fibrinolytic activity in the plasma
Settings: oral administration

B1: nattokinase: serine proteinase of approximately 275 amino acids, approximately 27.7 kDa, fibrinolytic enzyme from natto (Bacillus subtilis) (protein)
chain: AQSVPYGISQIKAPALHSQGYTGSNVKVAVIDSGIDSSHPDLNVRGGASFVPSETNPYQDGSSHGTHVAGTIAALNNSIGVLGVAPSASYAVKVLDSTGSGQYSWIINGIEWAISNNMGVINMSLGGPSGSTALKTVVDKAVSSGIVVAAAAGNEGSSGSSSTVGYPAKYPSTIAVGAVNSSNQRASFSSAGSELDVMAPGVSIQSTLPGGTYGAYNGTSMATPHVAGAAALILSKHPTWTNAQVRDRLESTATYLGNSFYYGKGLINVQAAAQ
modifications: Bacillus Subtilis
**Q.** With B1 as the molecule, how does the “Fibrinolytic activity in the plasma” value read?
**A.** The value was “significant enhancement”.
